Our source for the Fold diff values is US20220332804A1 (CSL INNOVATION, published 2022).

What all share (test): SPR, KD relative to WT C2;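 further: biacore SPR at 37 °C, anti-C2 mAbs captured on anti-human IgG chips with alanine or serine point mutants of C2 as analyte, KD from 1:1 fit compared with wild-type C2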
The target in one assay is T1, human C2 S428A (human, UniProt P06681 21-752).
T1 sequence: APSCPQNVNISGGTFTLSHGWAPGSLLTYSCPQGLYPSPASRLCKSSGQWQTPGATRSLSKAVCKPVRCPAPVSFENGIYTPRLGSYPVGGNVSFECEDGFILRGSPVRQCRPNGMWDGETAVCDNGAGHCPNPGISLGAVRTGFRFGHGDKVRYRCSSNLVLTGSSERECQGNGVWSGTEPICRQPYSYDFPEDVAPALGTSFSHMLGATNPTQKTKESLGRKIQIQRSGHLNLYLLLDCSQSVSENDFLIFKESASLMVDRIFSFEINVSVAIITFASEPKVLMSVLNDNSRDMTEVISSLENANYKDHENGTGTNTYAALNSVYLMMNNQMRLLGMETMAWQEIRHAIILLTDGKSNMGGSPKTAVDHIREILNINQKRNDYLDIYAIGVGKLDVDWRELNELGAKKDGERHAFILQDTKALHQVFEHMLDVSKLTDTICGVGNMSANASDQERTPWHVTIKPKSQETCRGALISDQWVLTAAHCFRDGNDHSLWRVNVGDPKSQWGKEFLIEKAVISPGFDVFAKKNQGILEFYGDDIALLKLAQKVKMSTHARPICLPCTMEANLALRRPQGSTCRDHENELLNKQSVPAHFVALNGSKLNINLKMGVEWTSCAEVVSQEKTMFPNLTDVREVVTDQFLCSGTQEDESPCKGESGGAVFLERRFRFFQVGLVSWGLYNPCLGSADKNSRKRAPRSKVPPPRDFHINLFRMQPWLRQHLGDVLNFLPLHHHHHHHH

The target in the next assay is T2, human C2 I320A (human, UniProt P06681 21-752).
T2 sequence: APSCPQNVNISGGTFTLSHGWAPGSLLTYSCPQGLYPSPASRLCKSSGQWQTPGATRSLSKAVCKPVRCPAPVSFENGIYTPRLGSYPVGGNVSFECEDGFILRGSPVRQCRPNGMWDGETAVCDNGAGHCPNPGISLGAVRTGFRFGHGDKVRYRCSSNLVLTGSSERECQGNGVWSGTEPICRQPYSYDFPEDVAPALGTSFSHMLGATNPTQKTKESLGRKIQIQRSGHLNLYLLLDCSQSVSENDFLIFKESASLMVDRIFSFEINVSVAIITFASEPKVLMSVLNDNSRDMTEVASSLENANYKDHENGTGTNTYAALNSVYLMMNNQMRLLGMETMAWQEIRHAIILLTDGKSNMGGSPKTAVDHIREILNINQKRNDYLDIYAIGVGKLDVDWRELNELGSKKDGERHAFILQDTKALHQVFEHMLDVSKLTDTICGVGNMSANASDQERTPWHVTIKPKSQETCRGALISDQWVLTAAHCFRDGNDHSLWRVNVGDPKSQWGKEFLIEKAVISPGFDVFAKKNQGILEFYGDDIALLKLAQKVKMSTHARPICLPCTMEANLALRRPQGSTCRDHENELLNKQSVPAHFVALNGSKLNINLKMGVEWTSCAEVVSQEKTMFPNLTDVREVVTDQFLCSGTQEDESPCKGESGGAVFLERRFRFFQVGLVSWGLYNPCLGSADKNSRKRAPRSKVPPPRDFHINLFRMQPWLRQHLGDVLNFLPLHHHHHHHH

For another assay, the target named is T3, human C2 R519A (human, UniProt P06681 21-752).
T3 sequence: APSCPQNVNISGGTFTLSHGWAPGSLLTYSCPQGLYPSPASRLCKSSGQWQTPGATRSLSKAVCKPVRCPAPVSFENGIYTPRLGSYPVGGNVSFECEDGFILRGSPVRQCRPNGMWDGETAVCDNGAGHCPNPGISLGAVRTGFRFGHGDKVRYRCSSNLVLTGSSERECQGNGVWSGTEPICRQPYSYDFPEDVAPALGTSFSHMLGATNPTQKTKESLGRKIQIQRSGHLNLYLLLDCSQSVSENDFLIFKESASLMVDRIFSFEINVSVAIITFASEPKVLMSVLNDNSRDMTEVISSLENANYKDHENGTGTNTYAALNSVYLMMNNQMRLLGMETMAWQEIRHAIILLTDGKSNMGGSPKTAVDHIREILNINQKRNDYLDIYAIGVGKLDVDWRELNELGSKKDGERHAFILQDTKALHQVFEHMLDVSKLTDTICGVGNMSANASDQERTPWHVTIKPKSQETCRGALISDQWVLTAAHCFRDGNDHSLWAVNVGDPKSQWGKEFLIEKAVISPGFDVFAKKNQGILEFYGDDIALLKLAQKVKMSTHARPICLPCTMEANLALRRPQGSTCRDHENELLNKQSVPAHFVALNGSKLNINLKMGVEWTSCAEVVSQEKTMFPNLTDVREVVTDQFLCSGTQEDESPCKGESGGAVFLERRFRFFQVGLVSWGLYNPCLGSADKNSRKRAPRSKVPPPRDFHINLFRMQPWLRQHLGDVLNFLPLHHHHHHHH

Another assay addresses T4, human C2 H331A (human, UniProt P06681 21-752).
T4 sequence: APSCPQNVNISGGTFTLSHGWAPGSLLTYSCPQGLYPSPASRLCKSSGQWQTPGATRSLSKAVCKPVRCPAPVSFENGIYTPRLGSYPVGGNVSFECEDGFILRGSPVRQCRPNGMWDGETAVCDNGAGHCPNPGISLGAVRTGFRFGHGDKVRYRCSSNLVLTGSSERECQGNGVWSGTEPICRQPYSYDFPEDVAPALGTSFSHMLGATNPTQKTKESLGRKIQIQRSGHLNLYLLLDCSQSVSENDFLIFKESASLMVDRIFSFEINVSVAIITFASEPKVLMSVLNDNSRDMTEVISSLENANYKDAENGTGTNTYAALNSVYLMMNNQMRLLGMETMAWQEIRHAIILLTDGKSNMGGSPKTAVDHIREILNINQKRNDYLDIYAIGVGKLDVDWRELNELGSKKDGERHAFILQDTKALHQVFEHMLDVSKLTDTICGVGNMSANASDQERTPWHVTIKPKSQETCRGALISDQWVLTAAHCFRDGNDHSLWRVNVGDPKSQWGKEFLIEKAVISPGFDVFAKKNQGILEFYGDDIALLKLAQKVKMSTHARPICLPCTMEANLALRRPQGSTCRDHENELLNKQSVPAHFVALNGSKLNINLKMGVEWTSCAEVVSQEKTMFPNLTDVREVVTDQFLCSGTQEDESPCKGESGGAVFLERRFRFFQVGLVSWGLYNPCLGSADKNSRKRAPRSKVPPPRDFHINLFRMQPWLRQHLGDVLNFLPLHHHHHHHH

B1: RF16-242 (antibody, human IgG4 S228P, lambda, V domains shown)
VH: EVQLLQSGAEVKKPGESLKISCKGSGYSFTSYWIGWVRQMPGKGLEWMGIIYPGDSDTRYSPSFQGQVTISADKSISTAYLQWSSLKASDTAMYYCARRGHYGDYFDYWGQGTLVTVSS
VL: SYELTQPPSVSVSPGQTARITCSGDALPKKYAYWYHQKSGQAPVLVIYEDRRRPSEIPERFSGSSSGTMATLTITGAQVEDEGVYFCYSRDRAGNQRVFGGGTQLTVLG
notes: pH-dependent anti-C2 antibody from a phage display library
With B1, the Fold diff worked out at 3 fold in the assay with human C2 S428A, 10 fold with human C2 I320A, 1 fold in the assay with human C2 R519A and 27 fold in the assay with human C2 H331A.
